Laboratory results as given in the DeepSol protein solubility set.

Assay: soluble on expression in E. coli; label from the status in PepcDB or PDB records

Sequence | soluble on expression in E. coli
MSLMSSRVTIFTSCNDAYIYLLREGNSQAFPNAVGSKMVNLNTIPPKNGRDYYIALGLEGSANKLGVGIVKHPLLPKHANSDLSYDCEAEMLSNIRDTYVTPPGEGFLPRDTARHHRNWCIRLIKQALAEADIKSPTLDIDVICFTKGPGMGAPLHSVVIAARTCSLLWDVPLVGVNHCIGHIEMGREITKAQNPVVLYVSGGNTQVIAYSEKRYRIFGETLDIAIGNCLDRFARTLKIPNEPSPGYNIEQLAKKAPHKENLVELPYTVKGMDLSMSGILASIDLLAKDLFKGNKKNKILFDKTTGEQKVTVEDLCYSLQENLFAMLVEITERAMAHVNSNQVLIVGGVGCNVRLQEMMAQMCKDRANGQVHATDNRFCIDNGVMIAQAGLLEYRMGGIVKDFSETVVTQKFRTDEVYAAWRDEGHHHHHH | not soluble
MGHHHHHHSHSKKPYIVTIACTKGGSAKSTNAANIGAFCADHGLRTLLIDTDTQPTLSSYYSLAKTAPGGIYEFLLQRDVEPSHIVSQTSIKNLDLIQSNDPSNNVSHMLRNAPDGSIRFSHLIKSINNYDVIVIDTRGTRDITVDMSVLAADILFCPILPQILSAKEFIRGTIGMYQDLQTFESFGFKLPPLKAIANGVDNTNDVKFVMQKLHTLFANTFDESKTLLDFSIPYHVAYREAVTYALPVYRHSAVEYPVMQQLCC | not soluble
MAEKSCSLTEFVGTAIGDTLGLVIANVDTALLDAMKLEKRYRSIGILGARTGAGPHIMAADEAVKATNTEVVSIELPRDTKGGAGHGSLIILGGNDVSDVKRGIEVALKELDRTFGDVYGNEAGHIELQYTARASYALEKAFGAPIGRACGIIVGAPASVGVLMADTALKSANVEVVAYSSPAHGTSFSNEAILVISGDSGAVRQAVTSAREIGKTVLATLGSEPKNDRPSYI | not soluble
MGSDKIHHHHHHMEWIDRFIELLFYGEKEEAYKLKFDHFPRRLYKYEVIDEKRLLALKNNKIWFANPDKLNDPFDSCGVFFDKKVLCNYTNKKSIDEYIDGLKRNIKVCCFSEELNSMPMWAHYANNHTGICIEYDFSKLNYMSEFSKYIFPIRYETEKYDITKFLERIFKEEAEERMYLLFFLMQIKHVSWSYEKEWRIILKAYEDKNEGIVCPIKPEGIYLGLNCSEENKEKLKRIVVENIKCPIYEIEKTEGKLFEFKTKNVSEKNYK | not soluble
MSLGTNKDYIEYVHKVYDYLHTIPEKGFEEYKTSEFVLKELEKMGFENINKGVAGTGIIVTIDSKKEGPVFAIRADMDALEFIIDGEKKMIHACGHDGHTSMLLTAAKLIKERNLVKRGKLKILFQPGEEKLYGALRVIDSGLLDDVEEMVGMHLRPGQDCRLGKAIPAMYHCASCIMEFTIKGITCHGSKPHLGVNAVDAVCLAVNAINAIRVNPAIPNSIKVTNISVKGETYNNIPDEAFMALDIRAESNDIIEELKEKAIHAAKTAVSSINAEAVLISKDGVPAAEFDEELVNLAEETIKDVLGADASIGIFKNSGGEDFHYYTQKLKCKTTYIGLGADATPGFHNPNVTFDTKALEYGVDIWCRLVEKRLGEGHHHHHH | soluble
MKVGIVLNPHAGGGFDDLKRRVVVRVLKKLDGEFVTADKVAELLGIEAERVKVKETNTRLDTVNLVKALDGNVDVIAVFGGDGTVSDAASAKPQTPLLCIGIGTTNVSPALCPPDFDRLEEVEMRGLVVKFGGEERVAFNDVVVGSTILSTVDGKRVQVDARRYMRGEKVIATPRKFRARVEVGERVVEGVFGNIFVAMTDRRFLGKGIAGGASLSAFLGFKGVVACVSEGIVVSTYTKEDLRRVEPIVTSTISFDDEVVKIDADEVVSCDGNPLGVGRAEVAIEDGVVRVLKPFKEEE | soluble
MAELNTHVNVKEKIYAVRSVVPNKSNNEIVLVLQQFDFNVDKAVQAFVDGSAIQVLKEWNMTGKKNNKRKRSKSKQHQGNKDAKDKVERPEAGPLQPQPPQIQNGPMNGCEKDSSSTDSANEKPALIPREKKISILEEPSKALRGVTGPNIEKSVKDLQRCTVSLTRYRVMIKEEVDSSVKKIKAAFAELHNCIIDKEVSLMAEMDKVKEEAMEILTARQKKAEELKRLTDLASQMAEMQLAELRAEIKHFVSERKYDEELGKAARFSCDIEQLKAQIMLCGEITHPKNNYSSRTPCSSLLPLLNAHAATSGKQSNFSRKSSTHNKPSEGKAANPKMVSSLPSTADPSHQTMPANKQNGSSNQRRRFNPQYHNNRLNGPAKSQGSGNEAEPLGKGNSRHEHRRQPHNGFRPKNKGGAKNQEASLGMKTPEAPAHSEKPRRRQHAADTSEARPFRGSVGRVSQCNLCPTRIEVSTDAAVLSVPAVTLVA | soluble
PDTSHYALLSNRIVNAVKQYRSQRALEASKDRLSLFIDQSPLGFVEYNQDFEIVRVNETLTEIFGYTETELLGETWETFVSSESYDDVDAVTSALSEASGGYHSVNENVRKDGERIVVEWHNRLVTDDS | not soluble
MPVEHLDVLIVGAGLSGVGAAYHLMKHCPGKSFALLEGRAAMGGTWDLFRYPGIRSDSDMFTLGYNFKPWSDPKAIADGPSIRRYIEETARENGIDRKIRYRHRVLRADWDSANARWNLDVQRGDEPEPLRMTAQFLLMCTGYYRYEAGYTPEFVGREDFAGQVVHPQLWPEDLDYSGKKVVVIGSGATAVTLVPSLTDKAAHVTMLQRSPSYVITLPQKDAISNFLRRFLPETWIYRQARARNVAMQMVFFMLARTFPGLVRKALLKLASLQLGKRFDIRHFSPRYKPWDERVCAVPDGDLFKVLRKGKASVVTEHIDRFVERGIRLKTGEVLEADIIVTATGLDLVMFGGAELAVDGKPFLVNQSMGYRGIMLRDLPNLAAVVGYTNASWTLKADLSSEYFCRLINHMDATGMRQVTARDSTGDVREEPFLNLDSGYIQRAAERMPKQGDRMPWKLYQNYVLDLALLRYGKVEDGYLVFSSPAPQRQAGGAAVQALGLEHHHHHH | not soluble
MGSDKIHHHHHHVITLWGRLNSHNVKKVAWALIEMDLPHQRRDIGGQFGYTTDYLAKNPNRMVPMIEEGELALWESNAILRYLADRHAPAFRSDDPVVRAQGDKWMDWQFHFADAQRDAFLGCVRHGKDASDPAVATSATAAAGMMAILDEELARRPWLSGDRFGIADIPMGVYAHTYHSLPIERPDLPHLADWYARLRTRPGYASQVMIPLI | not soluble
MGSDKIHHHHHHMKELENYYGRLFTKYQLTAKEREIAEKVPSITKKNNCFRCGTTFKEENKLPNDAYYCRACLLLGRVRSDEKLYHFPQKDFPITKCLKWKGQLTDWQQRISDGLVANVENNRATLVHAVTGAGKTEMIYHTVASVIDKGGAVCLASPRIDVCIELYKRLQNDFSVPISLLHGESEPYFRTPLVVATTHQLLKFYQAFDLVLIDEVDAFPYADNPMLYQAADNAVKEAGVQVFLTATSTDELDKKVRTGKLSRLSLPRRFHGNPLVVPQKVWFSKFDDTLKKNRLVPKLKKAIEEQRKSGFPLLIFVPEISKGQEFTKIMKKTFPEETIGFVSSQTENRLEIVEGFRKREITVLISTTILERGVTFPCVDVFVVQANHYLYTASSLVQIAGRVGRSIERPTGLLQFYHEGSTGAIEKAIAEIKQMNKEAGYV | not soluble
MERSAIQIPAGRIDDAVAKVDGLVGELMQNTGIPGMAVAIVHGGKTLYAKGFGVRDVGKGGGPDNKVDADTVFQLASVSKSVGATVVAHAVTDNVVTWDTPVVSKLPWFALRDPYVTGQVTIADLYSHRSGLPDHAGDLLEDLGYDRRQVLQRLKYLPLAPFRISYAYTNFGVTAAAEAVAAAAGQSWEDLSDEVLYRPLGMGSTSSRFTDFLARPNHAVNHVKVADRWEARYQRDPDAQSPAGGVSSSLNDMTHWLAMVLADGVYNGRRITSPEALLLVYTPQVISRHPVSPRARASFYGYGFNVGVTSSGRTEYSHSGAFGLGAAANFVVLPSEDLAIIALTNAGPIGVPETLTAEFMDLVQYGQVREDWAALYKKAFAPLNELAGSLVGKQSPANPAPSRPLNDYVGVYANDYWGPATVTYHDGQLRLSLGPKNQTFDLTHWDGDTFTFTLSTENALPGSISKATFAGDTLNLEYYDADKLGTFTRLEHHHHHH | not soluble
GEASPVDPLRPVVDASIQPLLKEHRIPGMAVAVLKDGKAHYFNYGVANRESGAGVSEQTLFEIGSVSKTLTATLGAYAVVKGAMQLDDKASRHAPWLKGSAFDSITMGELATYSAGGLPLQFPEEVDSSEKMRAYYRQWAPVYSPGSHRQYSNPSIGLFGHLAASSLKQPFAPLMEQTLLPGLGMHHTYVNVPKQAMASYAYGYSKEDKPIRVNPGMLADEAYGIKTSSADLLRFVKANIGGVDDKALQQAISLTHQGHYSVGGMTQGLGWESYAYPVTEQTLLAGNSAKVILEANPTAAPRESGSQVLFNKTGSTNGFGAYVAFVPARGIGIVMLANRNYPIEARIKAAHAILAQLAG | soluble
GPGSMSNEEVFRISNVSGYSVEIPLATAKELLGMLNMDQVFRAARAGTDDTDESGVDDGDTEPVKAEGMDYGKEVLDVVRAYALLPPDKRTSSIPRPLTQDLRSVVYAGEMELVEKAEREDYLVDLLNCALFLRFSQLSALCAAYMAVRIDEIAKAAPDIMEGAERIRKFLHMQNEWTEEEMGHLRREMEYAKSVDPNVY | soluble
MGSDKIHHHHHHMYDLQELEAFVSVVRTGSLTASTRDLGLPKSTLSRRIRQLEENVGQPLLLRQSRKIVPNDAGRVFYRYCNDILELVVQGREALDELKAEVTGKLELRCHESFVRGWFSGVVESFMADHDDLRVAIHTQRNLPEAVEDGVCIWLGETGETALRQEVLGVLKQGIFGSPAYFRQHGKPAAPGELAHHPWVDLLGMADTGVILHHSRQGNFPLSLPDRRFTVDQFNVQGDAIAAGRGLGLMPVWLVERRLTAHPGSFQSCLPEWYGPDLPVTLLYPHGVLPRRVRAFIAHLRSCIPEEWTGGGGTATQAVPKSGTHHSNT | not soluble
MTSAWNEEWRRRRLPALAGQEWDLIVVGGGISGAGILREAARRGWRCLLLEQRDFAWGTSSRSSKMVHGGLRYIAKGQWRLTRDSVRERQRLLGEAPGLVEPLSFVMAHYRGGFPGPRLFGGLLSVYDALAGRRNHRFYDAAALRYLAPGLKEQRLLGGTRFFDAVTDDARLVLRVLAEARHDGGEAFNGMRVRELLREGGQVVGLRAEDRESGELFDFRCRALALATGAWADELRQPGGSEHIRPLRGSHLLLPAWRLPVAHAFSFMHATDRRPVFVFPWEGATVVGTTDLDHRDGLGEDARISRAELDYLLAACAQQFPAAAIEARDVLSTWAGVRPVVSSGDDSGKPSDEKREHVLWREPGCVTLAGGKLTTFRPLAVEVLQACAPLLGRTVTDDGAAVFGACEGPLIDGLGSGQRRRLAGRYGRDLVRLKRLVDTLGTDCVGASETLWAELAFAAEAEMVLHLDDLLLRRTRLGLLLPGGGAAYLPRIRALCQARLGWDDPRWEREQQAYLDLWRRHYSLPVLEHHHHHH | not soluble
RKILDSKAIDLMNALMRLNQIRPGLQYKLLSQSGPVHAPVFTMSVDVDGTTYEASGPSKKTAKLHVAVKVLQAMGYPTGFDADI | soluble
MGSDKIHHHHHHMLNQQWLATFVTLVEVGHFTHTANKLFMTQPGVSQHIKKLEEQVGVHLLLRKGKRFELTEAGAILYQHARQYQLAETELLARLQTDNTYVGECRFGCSGAIASLLYPHFLERQIQYPELCVKIEAAPNQRIVSGILTNQLDMGIVTKRGEEADLTYQALGYAELSLVLPSQYLVDKIGIELLEQIGFIDHPDGDYYLQQVLQANFGGRAPMVNSRTGSPVKAHTMAFTHHIRRTGYVNQLSQILLPVAKGLGFTVLPLSTVNAFMPRESLWAVDLEQKVQESLYLVHKSTRPLPSRFDAFIEMAARLIAN | not soluble
MGSDKIHHHHHHMWGFPRAGSSPALGTSRKRRSFLRFFLEENGVKEIELFGTKVLSGTRREFLNAIEERIEKNIKTFVVTMNASILLKAIEDAGYRAIVNSADLVVPDGFGVVWAMKTLTGETTERLPGVEIMKHLCERSKEKGWKVYLLGTKREIVEKAKQVLERSGVRVVGCHDGFFSEKESPKIVEDVNRSSTDLLFVGMGVPRQEEWIYRNFPQLNVKLAMGVGGSIDVVSGKKKRAPEWVQRMNLEWLYRFFQSPLSKRKVPVQVSKFVFFVLREKLKNRN | not soluble
